From the supplement of paper PMC9112550, “Optimization of the antimicrobial peptide Bac7 by deep mutational scanning” (BMC Biology, 2022)

Each sequence was assayed on Escherichia coli TOP10 (assay: shrunken log2 fold change of peptide-encoding DNA abundance (4.5 h post-induction vs induction); higher = less antimicrobial activity (less host growth inhibition)). Details: time post-induction: 4.5 h; library: site-saturation at positions 5, 18, 19, 20.
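Further: peptides expressed intracellularly from a pBAD plasmid library in pooled LB shake-flask culture, induced with 0.3% L-arabinose, DNA abundance read by NGS, three biological replicates, DESeq2 with apeglm shrinkage.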

Sequence	shrunken log2 fold change
RRIRRRPPRLPRPRPRPAHLPRP	0.178
RRIRLRPPRLPRPRPRPNSHPRP	-0.404
RRIRMRPPRLPRPRPRPRALPRP	2.22
RRIRLRPPRLPRPRPRPKFWPRP	0.0752
RRIRLRPPRLPRPRPRPFANPRP	0.0335
RRIRMRPPRLPRPRPRPGTCPRP	0.851
RRIRQRPPRLPRPRPRPELIPRP	-0.017
RRIRDRPPRLPRPRPRPYAEPRP	0.247
RRIRDRPPRLPRPRPRPMVYPRP	0.225
RRIRKRPPRLPRPRPRPDYIPRP	-0.0117
RRIRLRPPRLPRPRPRPEGYPRP	0.104
RRIRDRPPRLPRPRPRPAEDPRP	-0.017
RRIRARPPRLPRPRPRPALYPRP	0.332
RRIRKRPPRLPRPRPRPTEHPRP	0.279
RRIRQRPPRLPRPRPRPMEFPRP	0.0663
RRIRVRPPRLPRPRPRPFRVPRP	-0.266
RRIRERPPRLPRPRPRPFHFPRP	-0.787
RRIRIRPPRLPRPRPRPDTGPRP	-0.375
RRIRWRPPRLPRPRPRPKVMPRP	-0.207
RRIRLRPPRLPRPRPRPPPQPRP	1.12
RRIRYRPPRLPRPRPRPVPSPRP	-0.404
RRIRARPPRLPRPRPRPRGPPRP	0.933
RRIRQRPPRLPRPRPRPQNGPRP	0.111
RRIRHRPPRLPRPRPRPMYWPRP	-0.222
RRIRNRPPRLPRPRPRPVHSPRP	-0.245

Sequence	shrunken log2 fold change
RRIRARPPRLPRPRPRPTCYPRP	0.128
RRIRWRPPRLPRPRPRPCFEPRP	-0.0254
RRIRERPPRLPRPRPRPMHGPRP	-0.00992
RRIRYRPPRLPRPRPRPLKCPRP	-0.301
RRIRHRPPRLPRPRPRPNSDPRP	-0.0908
RRIRGRPPRLPRPRPRPVVIPRP	-0.253
RRIRCRPPRLPRPRPRPQRSPRP	2.66
RRIRWRPPRLPRPRPRPSCGPRP	0.0847
RRIRYRPPRLPRPRPRPTSTPRP	-0.203
RRIRLRPPRLPRPRPRPPMPPRP	0.0906
RRIRSRPPRLPRPRPRPHSFPRP	0.176
RRIRWRPPRLPRPRPRPCCLPRP	0.00932
RRIRARPPRLPRPRPRPMIMPRP	-0.0807
RRIRIRPPRLPRPRPRPSDIPRP	-0.366
RRIRHRPPRLPRPRPRPNRDPRP	-0.0852
RRIRGRPPRLPRPRPRPGSNPRP	0.0237
RRIRQRPPRLPRPRPRPNIEPRP	-0.0328
RRIRFRPPRLPRPRPRPGTIPRP	-0.173
RRIRTRPPRLPRPRPRPYFCPRP	-0.0855
RRIRLRPPRLPRPRPRPCYVPRP	-1.08
RRIRKRPPRLPRPRPRPLIYPRP	-0.213
RRIRARPPRLPRPRPRPCSIPRP	-0.092
RRIRNRPPRLPRPRPRPTIPPRP	-0.605
RRIRPRPPRLPRPRPRPSPAPRP	0.209
RRIRFRPPRLPRPRPRPKTCPRP	0.0353

Sequence	shrunken log2 fold change
RRIRPRPPRLPRPRPRPSDPPRP	-0.184
RRIRDRPPRLPRPRPRPDTHPRP	0.17
RRIRIRPPRLPRPRPRPSIEPRP	-0.407
RRIRWRPPRLPRPRPRPNFQPRP	0.0517
RRIRQRPPRLPRPRPRPHHQPRP	0.18
RRIRDRPPRLPRPRPRPLYRPRP	-0.163
RRIRSRPPRLPRPRPRPPVVPRP	0.473
RRIRFRPPRLPRPRPRPKMAPRP	-0.0582
RRIRDRPPRLPRPRPRPSTYPRP	-0.273
RRIRLRPPRLPRPRPRPNGRPRP	-0.192
RRIRWRPPRLPRPRPRPGNNPRP	0.1
RRIRYRPPRLPRPRPRPPNLPRP	-0.248
RRIRKRPPRLPRPRPRPKLQPRP	0.423
RRIRDRPPRLPRPRPRPRADPRP	0.65
RRIRFRPPRLPRPRPRPDHDPRP	-0.217
RRIRWRPPRLPRPRPRPDMMPRP	-0.0236
RRIRCRPPRLPRPRPRPNLWPRP	0.00489
RRIRPRPPRLPRPRPRPRPFPRP	0.248
RRIRYRPPRLPRPRPRPFQTPRP	-0.0251
RRIRERPPRLPRPRPRPAWQPRP	-0.109
RRIRNRPPRLPRPRPRPGNHPRP	-0.265
RRIRSRPPRLPRPRPRPCNTPRP	-0.324
RRIRVRPPRLPRPRPRPLQYPRP	1.72
RRIRDRPPRLPRPRPRPAVYPRP	-0.097
RRIRSRPPRLPRPRPRPGQYPRP	-0.113
